Experimental findings from the RNAGym collection of RNA variant scans (doi:10.7554/elife.80360) are described below.

Sequences and labels used below:
B1: CPEB3 Ribozyme (parent)
chain: GGGGGCCACAGCAGAAGCGUUCACGUCGCGGCCCCUGUCAGAUUCUGGUGAAUCUGCGAAUUCUGCUGU

The data set covers variants of B1. Nature of the data set: self-cleavage, relative activity (ratio to wild type); higher = more cleavage; co-transcriptional.
As for G25U G65A, the self-cleavage stood at 0.184.

In the case of G25U G65U, the self-cleavage came to 0.187.

Consider C27A G58C, for which the self-cleavage was 0.605.

On to G25A G30U, for which the self-cleavage is 0.209.

Consider U26C U43A, for which the self-cleavage was found to be 0.865.

As for U26C U43C, the self-cleavage was determined as 0.892.

Consider U26A G47C, for which the self-cleavage was determined as 0.891.

Regarding C27A G37A, the self-cleavage is 0.203.

As to C24U U53G, the self-cleavage was determined as 0.482.

For C24U U53A, the self-cleavage worked out at 0.64.

In the case of C27A G68C, the self-cleavage is 0.765.

Turning to C27A G68U, the self-cleavage came out at 0.811.

As to U26G G58C, the self-cleavage is 0.799.

Turning to G25U C66G, the self-cleavage was 0.187.

As for G25U C66A, the self-cleavage came out at 0.133.

As to G25C G28C, the self-cleavage worked out at 0.153.

As for C27G C29U, the self-cleavage is 0.121.

Turning to C27G C29A, the self-cleavage worked out at 0.186.

Consider C24U U38G, for which the self-cleavage was 0.166.

U26A U69A: the self-cleavage was determined as 0.938.

For U26A U49C, the self-cleavage was 0.79.

In the case of U26A U49G, the self-cleavage is 0.866.

For the variant U26A U49A, the self-cleavage is 0.866.

In the case of C24U G65C, the self-cleavage was found to be 0.353.

For G25A U67A, the self-cleavage amounted to 0.21.

In the case of G25A A60C, the self-cleavage was 0.142.

C27G A51C: the self-cleavage was 0.187.

In the case of U26G C63G, the self-cleavage was determined as 0.427.

G25C C45A: the self-cleavage was determined as 0.204.

Regarding U26C G30C, the self-cleavage stood at 0.486.

With U26A G50U, the self-cleavage was 0.818.

On to U26G U49A, for which the self-cleavage stood at 0.918.

As to U26A U46C, the self-cleavage is 0.809.

U26C U55G: the self-cleavage amounted to 0.74.

With U26C U49A, the self-cleavage came to 0.984.

Take U26C U53A: the self-cleavage came out at 0.958.

As to U26C U53G, the self-cleavage worked out at 0.873.

Regarding G25C G58U, the self-cleavage amounted to 0.134.

Consider G25C G58A, for which the self-cleavage was 0.212.

Regarding G25C G37U, the self-cleavage came to 0.156.

Regarding U26G A59U, the self-cleavage was 0.455.

As for C24U C63U, the self-cleavage amounted to 0.719.

For the variant C24U C63A, the self-cleavage turned out to be 0.391.

For U26G G65U, the self-cleavage is 0.53.

U26G G30A: the self-cleavage amounted to 0.509.

With G25C C57G, the self-cleavage stood at 0.141.

Consider G25C C57U, for which the self-cleavage came to 0.143.

Turning to G25C C63A, the self-cleavage worked out at 0.235.

For G25C C63G, the self-cleavage amounted to 0.176.

As to G25C C29A, the self-cleavage was determined as 0.143.

For the variant G25U G41C, the self-cleavage was determined as 0.103.

In the case of G25U G41U, the self-cleavage turned out to be 0.173.

Consider U26G C35U, for which the self-cleavage was 0.726.

In the case of U26G G41U, the self-cleavage came out at 0.756.

On to U26C G28C, for which the self-cleavage is 0.1.

For the variant G25C U49C, the self-cleavage was determined as 0.185.

For the variant C24U U62G, the self-cleavage came out at 0.386.

U26A C33U: the self-cleavage was 0.85.

In the case of U26A C33A, the self-cleavage is 0.682.

Take C27G C33U: the self-cleavage is 0.188.

Consider C27G C33A, for which the self-cleavage came to 0.29.

For G25U U36G, the self-cleavage is 0.155.

Consider U26C A60G, for which the self-cleavage amounted to 0.85.

As to G25U U69A, the self-cleavage was determined as 0.136.

Consider C27A C45U, for which the self-cleavage was 0.596.

As for G25A C45U, the self-cleavage came out at 0.132.

Regarding G25A C45G, the self-cleavage came to 0.142.

Take C24U G25U: the self-cleavage was 0.146.

As for U26A G28U, the self-cleavage is 0.211.

As to U26A G31U, the self-cleavage came out at 0.27.

As to U26A G31C, the self-cleavage was found to be 0.18.

Turning to C27A C63U, the self-cleavage turned out to be 0.463.

Turning to C27A C63G, the self-cleavage is 0.219.

For the variant G25U U64G, the self-cleavage turned out to be 0.189.

Consider C24U G30C, for which the self-cleavage is 0.152.

For C24U G37A, the self-cleavage was 0.167.

For the variant C24U G37C, the self-cleavage came out at 0.223.

For U26A C57A, the self-cleavage amounted to 0.355.

Turning to G25A C32A, the self-cleavage is 0.22.

As to U26C C45G, the self-cleavage turned out to be 0.983.

On to U26C C45A, for which the self-cleavage amounted to 0.936.

Turning to G25A G48C, the self-cleavage turned out to be 0.218.

With G25C A51U, the self-cleavage was 0.152.

On to U26A C34A, for which the self-cleavage was found to be 0.436.

For the variant U26C C35A, the self-cleavage was 0.254.

With C27A U61A, the self-cleavage stood at 0.28.

G25C G56U: the self-cleavage amounted to 0.256.

With G25C G56C, the self-cleavage stood at 0.164.

With U26G G31C, the self-cleavage stood at 0.131.

As for U26G G31U, the self-cleavage is 0.242.

Regarding G25U U38A, the self-cleavage stood at 0.168.

As for G25U U38C, the self-cleavage worked out at 0.13.

For C27A G48A, the self-cleavage came to 0.745.

With C27A G48C, the self-cleavage came to 0.652.

For the variant C27A G48U, the self-cleavage was determined as 0.706.

On to U26G C57U, for which the self-cleavage turned out to be 0.255.

C24U U67A: the self-cleavage came to 0.862.

On to G25U U26G, for which the self-cleavage came out at 0.0885.

Take C24U U36C: the self-cleavage turned out to be 0.37.

Regarding C24U U36A, the self-cleavage was 0.181.

Consider C24U G31C, for which the self-cleavage stood at 0.0935.

Take C24U G50U: the self-cleavage came out at 0.852.

Regarding G25A G41A, the self-cleavage worked out at 0.174.

With U26A C45U, the self-cleavage came out at 0.879.

Regarding U26A C45A, the self-cleavage stood at 0.828.

With U26A C45G, the self-cleavage was determined as 0.895.

In the case of C27A G47A, the self-cleavage came to 0.734.

With G25C U61A, the self-cleavage stood at 0.193.

Turning to G25C U61C, the self-cleavage was 0.0705.

Take U26A A42U: the self-cleavage was determined as 0.863.

For the variant C27A G31U, the self-cleavage is 0.165.

For the variant C27A G31A, the self-cleavage turned out to be 0.171.

Consider G25U U55C, for which the self-cleavage came out at 0.229.

Consider C24U U46G, for which the self-cleavage is 0.879.

In the case of G25C G50C, the self-cleavage came out at 0.179.

On to G25U G30U, for which the self-cleavage stood at 0.162.

Take G25U C39A: the self-cleavage was determined as 0.137.

For the variant U26C C27G, the self-cleavage came out at 0.195.

Consider U26C C27U, for which the self-cleavage amounted to 0.182.

Take U26C C27A: the self-cleavage was determined as 0.45.

C24U G58A: the self-cleavage is 0.516.

Regarding U26A C54A, the self-cleavage worked out at 0.655.

U26A C54G: the self-cleavage was found to be 0.758.

Take C27G C34A: the self-cleavage was determined as 0.207.

On to U26C G48U, for which the self-cleavage came to 1.01.

For U26A C39G, the self-cleavage is 0.798.

In the case of U26A C39A, the self-cleavage is 0.477.

As for U26A C39U, the self-cleavage was found to be 0.722.

For the variant U26C G37C, the self-cleavage was found to be 0.178.

As to C27A A60C, the self-cleavage amounted to 0.23.

G25C A60U: the self-cleavage came to 0.114.

In the case of G25A G65C, the self-cleavage worked out at 0.178.

In the case of G25A G65U, the self-cleavage is 0.134.

As for C27A U67G, the self-cleavage was found to be 0.635.

With C24U G68A, the self-cleavage amounted to 0.919.

As to G25A C34G, the self-cleavage amounted to 0.19.

Take G25U G68A: the self-cleavage came out at 0.204.

On to U26C C33U, for which the self-cleavage came to 0.997.

Consider C27A G56A, for which the self-cleavage stood at 0.276.

In the case of G25U C27A, the self-cleavage turned out to be 0.213.

Turning to G25U C27U, the self-cleavage turned out to be 0.164.

On to C27A G41U, for which the self-cleavage was determined as 0.16.

For C24U U64G, the self-cleavage stood at 0.466.

For the variant U26G C34A, the self-cleavage stood at 0.57.

As to G25A U69G, the self-cleavage came to 0.327.

Consider U26G U36A, for which the self-cleavage came to 0.186.

C27A U64C: the self-cleavage turned out to be 0.343.

Take C27A A51G: the self-cleavage was 0.67.

Turning to C27A A51C, the self-cleavage is 0.494.

For U26A G30C, the self-cleavage was determined as 0.266.

As for U26A G30U, the self-cleavage was determined as 0.254.

For G25A U61A, the self-cleavage came to 0.173.

Consider G25U G47U, for which the self-cleavage came to 0.148.

Take G25U G47A: the self-cleavage was 0.188.

On to G25C U44G, for which the self-cleavage amounted to 0.139.

Regarding G25C U44C, the self-cleavage was determined as 0.144.

For the variant U26C G56A, the self-cleavage stood at 0.855.

Take U26A U67A: the self-cleavage is 0.913.

For the variant C27A U38G, the self-cleavage turned out to be 0.141.

Regarding G25C C32U, the self-cleavage is 0.179.

Take G25U C34A: the self-cleavage came out at 0.153.

For the variant G25A U62G, the self-cleavage was determined as 0.16.

Take G25A G47C: the self-cleavage was 0.217.

Regarding G25A G47U, the self-cleavage was 0.198.

Regarding C27A U43C, the self-cleavage worked out at 0.404.

G25C U43A: the self-cleavage is 0.139.

U26C C32U: the self-cleavage was 0.974.
